# According to patent US20260022364A1, “ERT2 MUTANTS, INDUCIBLE CELL DEATH SYSTEMS, AND USES THEREOF” (Senti Biosciences, Inc., priority 2023, published 2026):
# Key:
# [1] = cited from earlier work; for estimated concentration in the brain, tissue, organs, and solid tumors / estimated concentration in the serum: tamoxifen orally 20 mg/day
# [2] = system: U87MG: 1066 reporter cell line; experiment: ERT2 mutant transcriptional switch activity, mCherry reporter; type: cell-based; settings: range of endoxifen concentrations
# Protocol: FIG. 26A depicts constructs and experimental methods for evaluating exemplary ERT2 mutant transcriptional switches. U87MG cells were transduced with the mCherry reporter construct SB01066, comprising synthetic promoter comprising a 4×ZF-10 zinc finger binding site (SEQ ID NO: 59) linked to a minimal promoter operably linked to an mCherry encoding sequence. This generated a U87MG: 1066 reporter cell line used for assessing transcriptional switch activity of ERT2 transcriptional switch constructs.
# 25k U87MG: 1066 reporter transduced line was transduced at a MOI of 1 with various ERT2 transcriptional switch constructs having the following structure: pSFFV: ZF10-1 (zinc finger DNA binding domain, SEQ ID NO: 84)_TCR linker (SEQ ID NO: 86)_p65 (transcriptional activation domain, SEQ ID NO: 64)_[…] linker (SEQ ID NO: 88)_ERT2 domain. The ERT2 mutants included a number of amino acid substitutions in addition to the “WT ERT2” mutations G400V/M543A/L544A/V595A.
# The next day, cells were split into no drug or drug titration conditions to evaluate performance at a range of endoxifen and estradiol concentrations. Performance of each ERT2 mutant transcriptional switch was evaluated by their ability to translocate and bind to the zinc finger binding site upstream of mCherry and initiate mCherry expression.
# The background normalized ND (0) conditions were divided by the average NV gMFI mCherry value in order to reflect any basal activity seen by each mutant. FIG. 26C depicts induced mCherry expression plotted against basal activity for each of the tested ERT2 transcriptional switch constructs.
# [3] = system: U87MG: 2357 reporter cell line; experiment: ERT2 mutant transcriptional switch inducing an IL-12 payload (IL-12p70 ELISA); type: cell-based; settings: 72 hours
# Protocol: FIG. 28A depicts constructs and experimental methods for evaluating exemplary ERT2 mutant transcriptional switches for inducing expression of an IL-12 payload. U87MG cells were transduced with construct SB02357, comprising synthetic promoter comprising a 4×ZF-10 zinc finger binding site (SEQ ID NO: 59) linked to a minimal promoter operably linked to an IL-12 encoding sequence. This generated a U87MG: 2357 reporter cell line used for assessing the ability of ERT2 transcriptional switch constructs to activate transcription of the IL-12 payload in a ligand-dependent manner.
# 25k U87MG: 2357 IL-12 payload transduced line was transduced with MOI of 1 of the ERT2 constructs SB03422, SB06149, SB09626, SB09642, SB09652, and SB09657, which are described in Example 9. […] The next day, cells were split into ND or drug titration conditions to evaluate performance at a range of Endoxifen and concentrations. 72 hours later, supernatant was harvested for quantification of IL-12 by IL-12p70 ELISA. IL-12 levels were read with a spectrophotometer at wavelength 450 nm with wavelength correction to 540 nm according to manufacturer's protocol. A kit-provided standard to calculate detected levels of IL-12 in 100 μL of media harvested from ˜100k cells based on OD.
Molecule,"estimated concentration in the brain, tissue, organs, and solid tumors [1]",estimated concentration in the serum [1],average peak plasma concentration ([1]; typical clinical dose of tamoxifen),fold activation and induced mCherry levels compared to WT (SB03422) [2],endoxifen concentration at which IL-12 expression is induced [3]
"CC/C(=C(\c1ccc(O)cc1)c1ccc(OCCN(C)C)cc1)c1ccccc1 [Construct 4-OHT, 4-hydroxytamoxifen]",0.4 nM,0.04 nM,,,
CC/C(=C(\c1ccc(O)cc1)c1ccc(OCCNC)cc1)c1ccccc1 [endoxifen],2.5 nM,0.25 nM,,,
CC/C(=C(\c1ccccc1)c1ccc(OCCN(C)C)cc1)c1ccccc1 [tamoxifen],,,approximately 40 ng/ml,,
"SB09642: ERT2 mutant transcriptional switch construct pSFFV: ZF10-1_p65_ERT2 domain (Table 23) (protein, ERT2 domain of ZF10-1_p65_ERT2 construct) SAGDMRAANLWPSPLMIKRSKKNSLALSLTADQMVSALLDAEPPILYSEYDPTRPFSEASMMGLLTNLADRELVHMINWAKRVPGFVDLTLHDQVHLLECAWMEILMIGLVWRSMEHPVKLLFAPNLVLDRDQGKCVEGLVEIFDMLLATSSRFRMMNLQGEEFVCLKSIILLNSGVYTFLPSTLKSLEEKDHIHRVLDKITDTLIHLMAKAGLTLQQQHQRLAQLLLILSHIRHMSNKGMELLYSMKCKNVVPLYDLLLEAADAHRLHAPTSRGGASVEETDQSHLATAGSTSSHSLQKYYITGEAEGFPATA",,,,highest fold activation and induced mCherry levels,0.1 nM
"SB09657: ERT2 mutant transcriptional switch construct pSFFV: ZF10-1_p65_ERT2 domain (Table 23) (protein, ERT2 domain of ZF10-1_p65_ERT2 construct) SAGDMRAANLWPSPLMIKRSKKNSLALSLTADQMVSALLDAEPPILYSEYDPTRPFSEASMMGLLTNLADREIVHMINWAKRVPGFVDLTLHDQVHLLECAWMEILMIGLVWRSMEHPVKLLFAPNLLLDRDQGKCVEGMVEIFDMLLATSSRFRMMNLQGEEFVCLKSIILLNSGVYTFLPSTLKSLEEKDHIHRVLDKITDTLIHLMAKAGLTLQQQHQRLAQLLLILSHIRHMSNKGMELLYSMKCKNVVPLYDLLLEAADAHRLHAPTSRGGASVEETDQSHLATAGSTSSHSLQKYYITGEAEGFPATA",,,,highest fold activation and induced mCherry levels,0.1 nM
"SB09626: ERT2 mutant transcriptional switch construct pSFFV: ZF10-1_p65_ERT2 domain (Table 23) (protein, ERT2 domain of ZF10-1_p65_ERT2 construct) SAGDMRAANLWPSPLMIKRSKKNSLALSLTADQMVSALLDAEPPILYSEYDPTRPFSEASMMGLLTNLADREIVHMINWAKRVPGFVDLTLHDQVHLLECAWLEILMIGLVWRSMEHPVKLLFAPNLLLDRDQGKCVEGLVEIFDMLLATSSRFRMMNLQGEEFVCLKSIILLNSGVYTFLPSTLKSLEEKDHIHRVLDKITDTLIHLMAKAGLTLQQQHQRLAQLLLILSHIRHMSNKGMELLYSMKCKNVVPLYDLLLEAADAHRLHAPTSRGGASVEETDQSHLATAGSTSSHSLQKYYITGEAEGFPATA",,,,highest fold activation and induced mCherry levels,0.1 nM
